6 molecules from patent publication US20210032299A1 (Eli Lilly, published 2021) can be followed below.

Starred links: 1 amine or outer side, 2 acyl side, 3 side chain; linkers in the order of their positions; H or OH if unused. Non-standard residues stand in square brackets, D forms with d. Groups on a side chain read outwards from the residue. No end group written: not given here. *: point of attachment. C20 diacid = O=C(O)CCCCCCCCCCCCCCCCCCC(=O)*; C18 diacid = O=C(O)CCCCCCCCCCCCCCCCC(=O)*; γGlu = O=C(O)[C@H](CCC(=O)[*:2])N[*:1]; αMeF = C[C@](N)(Cc1ccccc1)C(=O)O; 4Pal = N[C@@H](Cc1ccncc1)C(=O)O; αMeL = CC(C)C[C@](C)(N)C(=O)O; AEEA = NCCOCCOCC(=O)O; Aib = CC(C)(N)C(=O)O

Test [1] deals with T1, human glucose-dependent insulinotropic polypeptide (GIP) receptor (human, UniProt P48546 22-466).
T1 construct: whole, on cells; Assayed as crude membranes of stably transfected CHO cells; also called hGIPR; human GIP receptor
T1 sequence (looked up): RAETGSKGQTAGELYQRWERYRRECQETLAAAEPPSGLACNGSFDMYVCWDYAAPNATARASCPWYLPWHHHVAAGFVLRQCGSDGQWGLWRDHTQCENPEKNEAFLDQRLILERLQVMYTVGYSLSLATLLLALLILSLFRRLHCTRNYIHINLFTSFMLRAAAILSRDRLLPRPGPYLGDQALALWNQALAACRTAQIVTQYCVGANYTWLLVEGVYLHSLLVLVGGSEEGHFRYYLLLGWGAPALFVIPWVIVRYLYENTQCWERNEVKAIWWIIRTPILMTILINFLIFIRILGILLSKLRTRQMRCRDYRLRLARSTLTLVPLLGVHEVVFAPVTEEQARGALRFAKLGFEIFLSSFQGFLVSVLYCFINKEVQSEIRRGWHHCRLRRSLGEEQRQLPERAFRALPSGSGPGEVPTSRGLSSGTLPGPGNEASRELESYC
The test is described as follows: SPA, displacement of [125I]-GIP from hGIPR membranes, 0.1% bacitracin. For orientation: Loss of bound radioactivity is the signal in a displacement assay; it reports binding, not function.

The target of the next test is T2, human GLP-1 receptor (human, UniProt P43220 24-463).
T2 construct: whole, on cells; Assayed as crude membranes of stably transfected HEK293 cells; also called hGLP1R; hGLP-1R
Nature of the test: SPA, displacement of [125I]-GLP-1 from hGLP-1R membranes, 0.1% bacitracin. The method, then:
The binding buffer contains 25 mM HEPES, pH 7.4, 2.5 mM CaCl₂, 1 mM MgCl₂, 0.1% (w/v) bacitracin, 0.003% (w/v) TWEEN®-20, and Roche Complete™ Protease Inhibitors without EDTA.
Data are analyzed using four-parameter (curve maximum, curve minimum, […], Hill slope) nonlinear regression routines (Genedata Screener, version 12.0.4, Genedata AG, Basal, Switzerland). […] Values for Kᵢ are reported as the geometric mean, with error expressed as the standard error of the mean (SEM) and n is equal to the number of independent replicates (determined in assays performed on different days). Geometric Means are calculated as follows: […]

The target in the next test is T3, human glucagon receptor (human, UniProt P47871 26-477).
T3 construct: whole, on cells; Assayed as crude membranes of stably transfected HEK293 cells; also called hGcgR; GcgR
The test is described as follows: SPA, displacement of [125I]-Gcg from hGcgR membranes, 0.1% bacitracin. Here is the method:
The binding buffer contains 25 mM 4-(2-hydroxyethyl)-1-piperazineethanesulfonic acid (HEPES), pH 7.4, 2.5 mM CaCl₂), 1 mM MgCl₂, 0.1% (w/v) bacitracin (Research Products), 0.003% (w/v) Polyoxyethylenesorbitan monolaurate (TWEEN®-20), and Roche Complete™ Protease Inhibitors without EDTA. […] Plates are sealed and mixed on a plate shaker (setting 6) for 1 minute and read with a PerkinElmer Trilux MicroBeta® scintillation counter after 12 hours of incubation/settling time at room temperature.
Data are analyzed using four-parameter (curve maximum, curve minimum, […], Hill slope) nonlinear regression routines (Genedata Screener, version 12.0.4, Genedata AG, Basal, Switzerland). […] Values for Kᵢ are reported as the geometric mean, with error expressed as the standard error of the mean (SEM) and n is equal to the number of independent replicates (determined in assays performed on different days).

T3 sequence (P47871 26-477): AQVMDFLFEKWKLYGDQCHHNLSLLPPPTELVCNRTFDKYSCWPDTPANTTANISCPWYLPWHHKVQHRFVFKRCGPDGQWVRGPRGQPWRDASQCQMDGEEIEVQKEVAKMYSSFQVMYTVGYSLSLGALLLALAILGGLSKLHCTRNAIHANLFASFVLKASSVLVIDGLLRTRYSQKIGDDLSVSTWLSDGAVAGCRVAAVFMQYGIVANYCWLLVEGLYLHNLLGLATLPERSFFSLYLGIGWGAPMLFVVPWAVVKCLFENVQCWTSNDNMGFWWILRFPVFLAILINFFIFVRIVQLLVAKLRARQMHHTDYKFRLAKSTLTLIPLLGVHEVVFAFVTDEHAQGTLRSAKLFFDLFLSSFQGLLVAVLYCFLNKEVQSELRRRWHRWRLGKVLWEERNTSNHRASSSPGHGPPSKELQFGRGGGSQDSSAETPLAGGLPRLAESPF

B1: Example 49 (peptide)
peptide: Y[Aib]EGTFISDYSI[αMeL]LDKK([AEEA-AEEA-γGlu-C18 diacid])HQ[Aib]DFVE[4Pal]LLAGGPSSGAPPPS-NH2
modifications: N-terminus assumed
SMILES: CC[C@H](C)[C@H](NC(=O)[C@H](Cc1ccccc1)NC(=O)[C@@H](NC(=O)CNC(=O)[C@H](CCC(=O)O)NC(=O)C(C)(C)NC(=O)[C@@H](N)Cc1ccc(O)cc1)[C@@H](C)O)C(=O)N[C@@H](CO)C(=O)N[C@@H](CC(=O)O)C(=O)N[C@@H](Cc1ccc(O)cc1)C(=O)N[C@@H](CO)C(=O)N[C@H](C(=O)N[C@@](C)(CC(C)C)C(=O)N[C@@H](CC(C)C)C(=O)N[C@@H](CC(=O)O)C(=O)N[C@@H](CCCCN)C(=O)N[C@@H](CCCCNC(=O)COCCOCCNC(=O)COCCOCCNC(=O)CC[C@H](NC(=O)CCCCCCCCCCCCCCCCC(=O)O)C(=O)O)C(=O)N[C@@H](Cc1c[nH]cn1)C(=O)N[C@@H](CCC(N)=O)C(=O)NC(C)(C)C(=O)N[C@@H](CC(=O)O)C(=O)N[C@@H](Cc1ccccc1)C(=O)N[C@H](C(=O)N[C@@H](CCC(=O)O)C(=O)N[C@@H](Cc1ccncc1)C(=O)N[C@@H](CC(C)C)C(=O)N[C@@H](CC(C)C)C(=O)N[C@@H](C)C(=O)NCC(=O)NCC(=O)N1CCC[C@H]1C(=O)N[C@@H](CO)C(=O)N[C@@H](CO)C(=O)NCC(=O)N[C@@H](C)C(=O)N1CCC[C@H]1C(=O)N1CCC[C@H]1C(=O)N1CCC[C@H]1C(=O)N[C@@H](CO)C(N)=O)C(C)C)[C@@H](C)CC
B1: the results for the Ki (in test [1]; in the test with human GLP-1 receptor) were 0.0512 nM and 596 nM, respectively.

B2: Example 21 (peptide)
peptide: Y[Aib]EGTFISDYSIALDKK([AEEA-AEEA-γGlu-C18 diacid])HQ[Aib]DFVE[4Pal]LLAGGPSSGAPPPS-NH2
modifications: N-terminus assumed
SMILES: CC[C@H](C)[C@H](NC(=O)[C@H](CO)NC(=O)[C@H](Cc1ccc(O)cc1)NC(=O)[C@H](CC(=O)O)NC(=O)[C@H](CO)NC(=O)[C@@H](NC(=O)[C@H](Cc1ccccc1)NC(=O)[C@@H](NC(=O)CNC(=O)[C@H](CCC(=O)O)NC(=O)C(C)(C)NC(=O)[C@@H](N)Cc1ccc(O)cc1)[C@@H](C)O)[C@@H](C)CC)C(=O)N[C@@H](C)C(=O)N[C@@H](CC(C)C)C(=O)N[C@@H](CC(=O)O)C(=O)N[C@@H](CCCCN)C(=O)N[C@@H](CCCCNC(=O)COCCOCCNC(=O)COCCOCCNC(=O)CC[C@H](NC(=O)CCCCCCCCCCCCCCCCC(=O)O)C(=O)O)C(=O)N[C@@H](Cc1c[nH]cn1)C(=O)N[C@@H](CCC(N)=O)C(=O)NC(C)(C)C(=O)N[C@@H](CC(=O)O)C(=O)N[C@@H](Cc1ccccc1)C(=O)N[C@H](C(=O)N[C@@H](CCC(=O)O)C(=O)N[C@@H](Cc1ccncc1)C(=O)N[C@@H](CC(C)C)C(=O)N[C@@H](CC(C)C)C(=O)N[C@@H](C)C(=O)NCC(=O)NCC(=O)N1CCC[C@H]1C(=O)N[C@@H](CO)C(=O)N[C@@H](CO)C(=O)NCC(=O)N[C@@H](C)C(=O)N1CCC[C@H]1C(=O)N1CCC[C@H]1C(=O)N1CCC[C@H]1C(=O)N[C@@H](CO)C(N)=O)C(C)C
In the case of B2, the Ki (commonly a dissociation constant, usually derived from enzyme kinetics or from competition with a known ligand) in test [1] amounted to 1.46 nM; with human GLP-1 receptor, 801 nM.

B3: Example 55 (peptide)
peptide: YXEGTXISDYSIXLDKKHQXDFVEXLLAGGPSSGAPPPS
modifications: Aib2; Iva6; αMeL13; K17((2-[2-(2-Amino-ethoxy)-ethoxy]-acetyl)2-(γ-Glu)-CO-(CH2)18-CO2H); Aib20; 4-Pal25; C-terminal amide
With B3, the Ki in test [1] is 0.0331 nM; with human GLP-1 receptor, 262 nM.

B4: Example 41 (peptide)
peptide: Y[Aib]EGT[αMeF]ISDYSIALDKK([AEEA-AEEA-γGlu-C20 diacid])HQ[Aib]DFVE[4Pal]LLETGPSSGAPPPS-NH2
modifications: N-terminus assumed
SMILES: CC[C@H](C)[C@H](NC(=O)[C@H](CO)NC(=O)[C@H](Cc1ccc(O)cc1)NC(=O)[C@H](CC(=O)O)NC(=O)[C@H](CO)NC(=O)[C@@H](NC(=O)[C@](C)(Cc1ccccc1)NC(=O)[C@@H](NC(=O)CNC(=O)[C@H](CCC(=O)O)NC(=O)C(C)(C)NC(=O)[C@@H](N)Cc1ccc(O)cc1)[C@@H](C)O)[C@@H](C)CC)C(=O)N[C@@H](C)C(=O)N[C@@H](CC(C)C)C(=O)N[C@@H](CC(=O)O)C(=O)N[C@@H](CCCCN)C(=O)N[C@@H](CCCCNC(=O)COCCOCCNC(=O)COCCOCCNC(=O)CC[C@H](NC(=O)CCCCCCCCCCCCCCCCCCC(=O)O)C(=O)O)C(=O)N[C@@H](Cc1c[nH]cn1)C(=O)N[C@@H](CCC(N)=O)C(=O)NC(C)(C)C(=O)N[C@@H](CC(=O)O)C(=O)N[C@@H](Cc1ccccc1)C(=O)N[C@H](C(=O)N[C@@H](CCC(=O)O)C(=O)N[C@@H](Cc1ccncc1)C(=O)N[C@@H](CC(C)C)C(=O)N[C@@H](CC(C)C)C(=O)N[C@@H](CCC(=O)O)C(=O)N[C@H](C(=O)NCC(=O)N1CCC[C@H]1C(=O)N[C@@H](CO)C(=O)N[C@@H](CO)C(=O)NCC(=O)N[C@@H](C)C(=O)N1CCC[C@H]1C(=O)N1CCC[C@H]1C(=O)N1CCC[C@H]1C(=O)N[C@@H](CO)C(N)=O)[C@@H](C)O)C(C)C
As for B4, the values for the Ki (with human glucagon receptor; in test [1]) were 758 nM and 0.143 nM, respectively.

B5: Example 35 (peptide)
peptide: Y[Aib]EGT[αMeL]ISDYSIALDKK([AEEA-AEEA-γGlu-C20 diacid])HQ[Aib]EFVNYLLATGPSSGAPPPS-NH2
modifications: N-terminus assumed
SMILES: CC[C@H](C)[C@H](NC(=O)[C@H](CO)NC(=O)[C@H](Cc1ccc(O)cc1)NC(=O)[C@H](CC(=O)O)NC(=O)[C@H](CO)NC(=O)[C@@H](NC(=O)[C@](C)(CC(C)C)NC(=O)[C@@H](NC(=O)CNC(=O)[C@H](CCC(=O)O)NC(=O)C(C)(C)NC(=O)[C@@H](N)Cc1ccc(O)cc1)[C@@H](C)O)[C@@H](C)CC)C(=O)N[C@@H](C)C(=O)N[C@@H](CC(C)C)C(=O)N[C@@H](CC(=O)O)C(=O)N[C@@H](CCCCN)C(=O)N[C@@H](CCCCNC(=O)COCCOCCNC(=O)COCCOCCNC(=O)CC[C@H](NC(=O)CCCCCCCCCCCCCCCCCCC(=O)O)C(=O)O)C(=O)N[C@@H](Cc1c[nH]cn1)C(=O)N[C@@H](CCC(N)=O)C(=O)NC(C)(C)C(=O)N[C@@H](CCC(=O)O)C(=O)N[C@@H](Cc1ccccc1)C(=O)N[C@H](C(=O)N[C@@H](CC(N)=O)C(=O)N[C@@H](Cc1ccc(O)cc1)C(=O)N[C@@H](CC(C)C)C(=O)N[C@@H](CC(C)C)C(=O)N[C@@H](C)C(=O)N[C@H](C(=O)NCC(=O)N1CCC[C@H]1C(=O)N[C@@H](CO)C(=O)N[C@@H](CO)C(=O)NCC(=O)N[C@@H](C)C(=O)N1CCC[C@H]1C(=O)N1CCC[C@H]1C(=O)N1CCC[C@H]1C(=O)N[C@@H](CO)C(N)=O)[C@@H](C)O)C(C)C
As for B5, the Ki in test [1] was 0.0351 nM; in the test with human GLP-1 receptor it was 177 nM.

B6: Example 45 (peptide)
peptide: Y[Aib]EGTFISDYSI[αMeL]LDKK([AEEA-AEEA-γGlu-C20 diacid])HQ[Aib]DFVE[4Pal]LLETGPSSGAPPPS-NH2
modifications: N-terminus assumed
SMILES: CC[C@H](C)[C@H](NC(=O)[C@H](Cc1ccccc1)NC(=O)[C@@H](NC(=O)CNC(=O)[C@H](CCC(=O)O)NC(=O)C(C)(C)NC(=O)[C@@H](N)Cc1ccc(O)cc1)[C@@H](C)O)C(=O)N[C@@H](CO)C(=O)N[C@@H](CC(=O)O)C(=O)N[C@@H](Cc1ccc(O)cc1)C(=O)N[C@@H](CO)C(=O)N[C@H](C(=O)N[C@@](C)(CC(C)C)C(=O)N[C@@H](CC(C)C)C(=O)N[C@@H](CC(=O)O)C(=O)N[C@@H](CCCCN)C(=O)N[C@@H](CCCCNC(=O)COCCOCCNC(=O)COCCOCCNC(=O)CC[C@H](NC(=O)CCCCCCCCCCCCCCCCCCC(=O)O)C(=O)O)C(=O)N[C@@H](Cc1c[nH]cn1)C(=O)N[C@@H](CCC(N)=O)C(=O)NC(C)(C)C(=O)N[C@@H](CC(=O)O)C(=O)N[C@@H](Cc1ccccc1)C(=O)N[C@H](C(=O)N[C@@H](CCC(=O)O)C(=O)N[C@@H](Cc1ccncc1)C(=O)N[C@@H](CC(C)C)C(=O)N[C@@H](CC(C)C)C(=O)N[C@@H](CCC(=O)O)C(=O)N[C@H](C(=O)NCC(=O)N1CCC[C@H]1C(=O)N[C@@H](CO)C(=O)N[C@@H](CO)C(=O)NCC(=O)N[C@@H](C)C(=O)N1CCC[C@H]1C(=O)N1CCC[C@H]1C(=O)N1CCC[C@H]1C(=O)N[C@@H](CO)C(N)=O)[C@@H](C)O)C(C)C)[C@@H](C)CC
For the molecule B6, the Ki was determined as 660 nM with human glucagon receptor and 0.0663 nM in test [1].
